The values below come from patent publication US20090276160A1.

What all share (experiment): cell-based or functional assay
The target in experiment [1] is T1, Complement factor C1s (Calbiochem) (human) (UniProt P09871).
T1 sequence (looked up): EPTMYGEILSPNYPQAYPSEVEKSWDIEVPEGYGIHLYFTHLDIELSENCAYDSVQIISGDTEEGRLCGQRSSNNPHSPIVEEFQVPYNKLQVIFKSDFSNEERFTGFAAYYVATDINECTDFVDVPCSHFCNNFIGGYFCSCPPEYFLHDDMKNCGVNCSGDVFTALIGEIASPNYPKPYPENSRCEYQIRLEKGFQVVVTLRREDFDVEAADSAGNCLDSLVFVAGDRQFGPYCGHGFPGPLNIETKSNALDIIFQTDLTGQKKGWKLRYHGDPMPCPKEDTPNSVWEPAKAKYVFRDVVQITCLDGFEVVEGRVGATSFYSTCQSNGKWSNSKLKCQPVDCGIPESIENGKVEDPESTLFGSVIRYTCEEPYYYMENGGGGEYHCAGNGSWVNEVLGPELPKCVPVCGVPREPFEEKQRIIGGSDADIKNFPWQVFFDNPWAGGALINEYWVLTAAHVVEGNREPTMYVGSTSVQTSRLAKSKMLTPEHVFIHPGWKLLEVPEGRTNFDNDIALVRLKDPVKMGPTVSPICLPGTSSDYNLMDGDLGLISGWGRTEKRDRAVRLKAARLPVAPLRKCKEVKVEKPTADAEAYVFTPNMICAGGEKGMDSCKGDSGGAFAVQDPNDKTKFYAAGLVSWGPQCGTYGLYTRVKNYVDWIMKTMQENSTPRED

Experiment [2] addresses tPA (Activase, Genentech) (human) (UniProt P00750).
Experiment [3] addresses Hepatocyte growth factor activator (HGFA), activated 34 kDa short form, residues Val373 to Ser655 with a C-terminal poly-histidine tag (human) (UniProt Q04756).
Experiment [4] concerns the target Factor XIa (Haematologic Technologies) (human) (UniProt P03951).
The target of experiment [5] is T2, Matriptase (residues 615-855) (human) (UniProt Q9Y5Y6).
T2 sequence (looked up): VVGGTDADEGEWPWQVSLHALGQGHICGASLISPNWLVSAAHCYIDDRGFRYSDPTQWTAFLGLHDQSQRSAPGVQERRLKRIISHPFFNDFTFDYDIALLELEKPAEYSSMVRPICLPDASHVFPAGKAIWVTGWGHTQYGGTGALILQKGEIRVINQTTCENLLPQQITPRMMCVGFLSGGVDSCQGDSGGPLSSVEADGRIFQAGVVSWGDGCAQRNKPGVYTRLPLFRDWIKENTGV

Experiment [6] deals with Plasma kallikrein (American Diagnostica) (human) (UniProt P03952).
Sequence of Plasma kallikrein (American Diagnostica) (human) (P03952 20-638 limits assumed): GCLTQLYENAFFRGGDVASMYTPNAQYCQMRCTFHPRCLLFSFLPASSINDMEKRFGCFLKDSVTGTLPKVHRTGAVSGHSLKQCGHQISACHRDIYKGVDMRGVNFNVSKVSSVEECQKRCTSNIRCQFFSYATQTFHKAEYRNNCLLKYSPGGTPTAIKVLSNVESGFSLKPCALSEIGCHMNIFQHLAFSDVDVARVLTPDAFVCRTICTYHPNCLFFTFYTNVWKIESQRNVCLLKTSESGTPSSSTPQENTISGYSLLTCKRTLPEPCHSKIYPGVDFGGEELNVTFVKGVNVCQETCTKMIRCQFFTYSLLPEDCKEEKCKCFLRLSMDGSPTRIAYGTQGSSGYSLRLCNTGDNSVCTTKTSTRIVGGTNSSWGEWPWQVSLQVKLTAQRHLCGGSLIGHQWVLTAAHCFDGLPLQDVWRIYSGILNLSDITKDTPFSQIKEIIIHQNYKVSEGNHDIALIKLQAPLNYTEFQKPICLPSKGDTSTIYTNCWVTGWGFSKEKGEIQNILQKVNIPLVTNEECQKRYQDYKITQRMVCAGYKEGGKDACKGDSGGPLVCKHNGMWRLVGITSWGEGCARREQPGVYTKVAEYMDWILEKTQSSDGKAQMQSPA
Experiment [7] deals with Plasmin (Haematologic Technologies) (human) (UniProt P00747).
Sequence of Plasmin (Haematologic Technologies) (human) (P00747 97-810 limits assumed): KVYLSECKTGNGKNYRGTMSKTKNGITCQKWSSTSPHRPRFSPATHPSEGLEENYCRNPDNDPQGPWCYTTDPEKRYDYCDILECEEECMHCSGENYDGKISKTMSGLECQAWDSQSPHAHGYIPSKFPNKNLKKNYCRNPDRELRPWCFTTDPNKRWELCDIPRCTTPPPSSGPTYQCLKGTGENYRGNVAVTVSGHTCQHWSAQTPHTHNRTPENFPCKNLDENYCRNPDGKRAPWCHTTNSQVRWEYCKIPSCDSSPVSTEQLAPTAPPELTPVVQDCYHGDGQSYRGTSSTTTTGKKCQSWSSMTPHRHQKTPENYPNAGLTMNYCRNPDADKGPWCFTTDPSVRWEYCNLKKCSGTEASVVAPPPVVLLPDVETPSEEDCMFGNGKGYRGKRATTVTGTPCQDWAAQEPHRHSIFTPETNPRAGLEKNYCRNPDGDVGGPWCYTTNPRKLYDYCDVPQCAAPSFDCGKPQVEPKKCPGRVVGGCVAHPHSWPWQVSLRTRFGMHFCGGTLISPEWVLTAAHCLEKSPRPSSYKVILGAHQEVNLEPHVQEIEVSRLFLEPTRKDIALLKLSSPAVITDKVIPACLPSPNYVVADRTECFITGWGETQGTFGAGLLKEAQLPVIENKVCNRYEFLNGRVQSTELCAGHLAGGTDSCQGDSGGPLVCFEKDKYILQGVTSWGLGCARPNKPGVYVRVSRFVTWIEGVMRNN
A further experiment deals with uPA (Chemicon) (human) (UniProt P00749).
The target of experiment [8] is Chymotrypsin (Sigma) (human) (UniProt P17538).
Sequence of Chymotrypsin (Sigma) (human) (P17538 19-263): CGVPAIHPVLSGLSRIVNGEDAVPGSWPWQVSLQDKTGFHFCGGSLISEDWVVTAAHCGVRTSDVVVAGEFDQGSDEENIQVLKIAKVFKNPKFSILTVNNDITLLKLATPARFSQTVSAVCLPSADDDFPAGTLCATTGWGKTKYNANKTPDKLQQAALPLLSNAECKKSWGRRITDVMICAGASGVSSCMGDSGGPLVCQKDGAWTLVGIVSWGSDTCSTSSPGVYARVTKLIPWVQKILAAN
For experiment [9], the target named is Factor XIIa (American Diagnostica) (human) (UniProt P00748).
In experiment [10] the target is Hepsin (residues 45-417) (human) (UniProt P05981).
Sequence of Hepsin (residues 45-417) (human) (P05981 45-417 limits assumed): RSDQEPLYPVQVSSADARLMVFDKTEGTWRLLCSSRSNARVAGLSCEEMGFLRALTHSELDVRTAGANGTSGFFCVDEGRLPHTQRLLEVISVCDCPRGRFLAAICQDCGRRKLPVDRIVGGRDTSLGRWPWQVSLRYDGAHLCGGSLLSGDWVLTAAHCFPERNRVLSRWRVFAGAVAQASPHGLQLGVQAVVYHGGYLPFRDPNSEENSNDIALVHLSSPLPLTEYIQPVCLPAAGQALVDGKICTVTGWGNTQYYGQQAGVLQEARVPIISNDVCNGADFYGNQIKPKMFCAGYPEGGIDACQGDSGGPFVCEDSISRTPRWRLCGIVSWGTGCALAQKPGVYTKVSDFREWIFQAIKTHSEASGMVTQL
Experiment [11] concerns the target Activated Protein C (Haematologic Technologies) (human) (UniProt P04070).
For experiment [12], the target named is Bovine trypsin (Worthington) (bovine) (UniProt P00760).
Sequence of Bovine trypsin (Worthington) (bovine) (P00760 24-246): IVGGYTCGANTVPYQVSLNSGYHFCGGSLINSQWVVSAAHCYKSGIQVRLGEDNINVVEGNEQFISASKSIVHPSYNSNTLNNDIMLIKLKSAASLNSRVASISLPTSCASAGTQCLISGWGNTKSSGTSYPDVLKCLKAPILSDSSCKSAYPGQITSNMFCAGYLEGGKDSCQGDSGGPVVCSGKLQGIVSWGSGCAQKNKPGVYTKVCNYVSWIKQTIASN
Experiment [13] addresses Factor Xa (Haematologic Technologies) (human) (UniProt P00742).
Experiment [14] addresses Thrombin (Haematologic Technologies) (human) (UniProt P00734).
In experiment [15] the target is Tissue factor/factor VIIa complex: human tissue factor (residues 1-219) with human recombinant FVIIa (human) (UniProt P13726).
Sequence of Tissue factor/factor VIIa complex: human tissue factor (residues 1-219) with human recombinant FVIIa (human) (P13726 33-251 limits assumed, chain 1 of 2): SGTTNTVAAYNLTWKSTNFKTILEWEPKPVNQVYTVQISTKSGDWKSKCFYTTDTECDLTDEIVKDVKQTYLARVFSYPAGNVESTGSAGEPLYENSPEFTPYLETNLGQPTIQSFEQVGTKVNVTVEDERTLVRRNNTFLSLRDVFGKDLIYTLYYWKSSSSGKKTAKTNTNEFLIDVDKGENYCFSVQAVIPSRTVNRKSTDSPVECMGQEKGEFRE
Sequence of Tissue factor/factor VIIa complex: human tissue factor (residues 1-219) with human recombinant FVIIa (human) (P08709 61-466 limits assumed, chain 2 of 2, further chain): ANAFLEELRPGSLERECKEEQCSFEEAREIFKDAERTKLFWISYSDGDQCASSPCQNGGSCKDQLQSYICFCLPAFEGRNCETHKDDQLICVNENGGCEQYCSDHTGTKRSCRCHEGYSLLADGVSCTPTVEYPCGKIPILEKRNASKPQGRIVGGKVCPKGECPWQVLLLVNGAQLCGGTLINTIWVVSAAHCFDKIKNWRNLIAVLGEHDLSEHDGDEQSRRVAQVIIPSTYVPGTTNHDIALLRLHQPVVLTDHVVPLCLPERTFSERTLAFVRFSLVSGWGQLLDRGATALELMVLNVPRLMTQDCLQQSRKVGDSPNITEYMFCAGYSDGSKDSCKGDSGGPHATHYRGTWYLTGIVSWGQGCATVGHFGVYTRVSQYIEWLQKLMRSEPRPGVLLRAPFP

Sequence of sHAI-1B, soluble HAI-1B ectodomain (O43278 36-465 limits assumed): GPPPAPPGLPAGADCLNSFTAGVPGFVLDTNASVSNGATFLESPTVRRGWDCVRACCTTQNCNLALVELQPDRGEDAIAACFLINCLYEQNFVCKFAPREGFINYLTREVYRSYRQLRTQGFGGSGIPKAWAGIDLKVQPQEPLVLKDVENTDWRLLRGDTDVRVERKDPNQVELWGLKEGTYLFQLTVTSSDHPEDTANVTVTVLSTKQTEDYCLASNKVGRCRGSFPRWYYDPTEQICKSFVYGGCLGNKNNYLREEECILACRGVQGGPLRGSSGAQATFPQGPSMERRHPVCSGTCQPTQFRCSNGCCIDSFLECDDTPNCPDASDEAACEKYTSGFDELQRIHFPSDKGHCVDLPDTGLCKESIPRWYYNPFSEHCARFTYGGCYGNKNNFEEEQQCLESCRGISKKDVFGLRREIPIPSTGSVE
Sequence of Hepatocyte growth factor activator (HGFA), activated 34 kDa short form, residues Val373 to Ser655 with a C-terminal poly-histidine tag (human) (Q04756 373-407, chain 1 of 2): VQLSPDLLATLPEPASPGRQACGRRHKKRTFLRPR
Sequence of Hepatocyte growth factor activator (HGFA), activated 34 kDa short form, residues Val373 to Ser655 with a C-terminal poly-histidine tag (human) (Q04756 408-655, chain 2 of 2): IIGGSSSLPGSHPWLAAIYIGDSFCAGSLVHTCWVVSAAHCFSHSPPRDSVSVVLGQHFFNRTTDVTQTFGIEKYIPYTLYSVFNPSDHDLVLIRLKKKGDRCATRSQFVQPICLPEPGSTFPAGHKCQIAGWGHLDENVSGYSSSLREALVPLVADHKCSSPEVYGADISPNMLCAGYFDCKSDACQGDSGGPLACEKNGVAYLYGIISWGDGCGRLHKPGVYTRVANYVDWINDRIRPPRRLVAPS
Sequence of Activated Protein C (Haematologic Technologies) (human) (P04070 43-197, form in doubt, chain 1 of 2): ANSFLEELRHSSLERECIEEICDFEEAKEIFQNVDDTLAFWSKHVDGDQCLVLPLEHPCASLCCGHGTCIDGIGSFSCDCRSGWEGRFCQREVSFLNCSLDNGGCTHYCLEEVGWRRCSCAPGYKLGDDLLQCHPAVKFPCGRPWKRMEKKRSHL
Sequence of Activated Protein C (Haematologic Technologies) (human) (P04070 212-461, form in doubt, chain 2 of 2): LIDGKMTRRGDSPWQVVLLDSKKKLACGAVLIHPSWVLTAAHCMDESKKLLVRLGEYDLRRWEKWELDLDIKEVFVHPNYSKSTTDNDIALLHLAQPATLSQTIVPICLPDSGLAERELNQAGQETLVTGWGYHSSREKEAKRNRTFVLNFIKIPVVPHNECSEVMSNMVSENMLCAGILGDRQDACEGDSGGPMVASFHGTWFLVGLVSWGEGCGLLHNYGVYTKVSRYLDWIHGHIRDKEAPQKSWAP
Sequence of Factor Xa (Haematologic Technologies) (human) (P00742 41-179 limits assumed, chain 1 of 2): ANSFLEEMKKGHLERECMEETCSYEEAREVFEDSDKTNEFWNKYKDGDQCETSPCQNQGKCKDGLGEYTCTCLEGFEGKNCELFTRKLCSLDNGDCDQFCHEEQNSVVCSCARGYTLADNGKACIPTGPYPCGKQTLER
Sequence of Factor Xa (Haematologic Technologies) (human) (P00742 235-488 limits assumed, chain 2 of 2): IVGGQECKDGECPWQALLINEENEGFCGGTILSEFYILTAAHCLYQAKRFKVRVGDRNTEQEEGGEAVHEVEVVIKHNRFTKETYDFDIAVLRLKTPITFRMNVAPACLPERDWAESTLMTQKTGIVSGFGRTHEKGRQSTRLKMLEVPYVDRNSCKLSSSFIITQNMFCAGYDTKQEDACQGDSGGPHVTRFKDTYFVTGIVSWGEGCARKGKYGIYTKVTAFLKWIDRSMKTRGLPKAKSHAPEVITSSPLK
Sequence of tPA (Activase, Genentech) (human) (P00750 36-562 limits assumed): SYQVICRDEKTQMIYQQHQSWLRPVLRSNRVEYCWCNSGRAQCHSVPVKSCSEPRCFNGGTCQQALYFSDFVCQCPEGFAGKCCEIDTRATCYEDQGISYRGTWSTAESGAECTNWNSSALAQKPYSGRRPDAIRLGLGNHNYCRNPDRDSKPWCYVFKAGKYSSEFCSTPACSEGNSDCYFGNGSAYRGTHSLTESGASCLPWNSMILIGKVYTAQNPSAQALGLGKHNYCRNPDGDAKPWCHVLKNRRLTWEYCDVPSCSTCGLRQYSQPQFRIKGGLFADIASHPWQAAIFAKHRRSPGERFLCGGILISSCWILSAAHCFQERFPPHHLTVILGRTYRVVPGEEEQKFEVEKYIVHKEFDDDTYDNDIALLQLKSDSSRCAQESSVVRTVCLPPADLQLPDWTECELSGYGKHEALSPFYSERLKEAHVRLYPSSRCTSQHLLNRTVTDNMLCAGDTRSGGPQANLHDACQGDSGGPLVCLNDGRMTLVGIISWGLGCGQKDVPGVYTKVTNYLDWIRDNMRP

As for “sHAI-1B, soluble HAI-1B ectodomain (from UniProt O43278 36-465)”, the IC50 (nM), inhibition of enzyme activity on chromogenic substrate was more than 2000 nM in [1]; more than 2000 nM in [2]; 30.5 nM in experiment [3]; more than 2000 nM in [4]; 16.5 nM in [5]; 686 nM in experiment [6]. Moreover, the IC50 (nM), inhibition of enzyme activity on chromogenic substrate in [7] is 399 nM; in the experiment with uPA (Chemicon) (human) it was more than 2000 nM; in [8], more than 2000 nM; in experiment [9], more than 2000 nM; in experiment [10], 21.1 nM; in experiment [11], more than 2000 nM. Moreover, the IC50 (nM), inhibition of enzyme activity on chromogenic substrate was 2.4 nM in experiment [12], more than 2000 nM in experiment [13], more than 2000 nM in experiment [14] and more than 2000 nM in experiment [15]. In addition, the IC50 (sHAI-1B)/IC50 (KD1) in experiment [3] was 8; in experiment [5], 10; in experiment [6], 33; in experiment [7] it was 3; in experiment [10], 3; in experiment [12], 3.
